How the values were obtained:
[1] = biological target: T1, human ROR1 expressed on the cell surface (human, UniProt Q01973 30-937); assay: flow cytometry on JeKo-1 cells (MCL), C2E3 IgG at 10 µg/mL, MFI of anti-ROR1 / MFI of 2nd Ab
T1 construct: whole, on cells; On JeKo-1 and Mino cells and other cancer cell lines (endogenous) and on transfected CHO and MC38 cells; also called cell surface-expressed ROR1; CHO-human ROR1
Method: (§1) For the cell lines, the binding to ROR1 was analyzed with FACS (FACSCalibur, BD Biosciences) by using the anti-ROR1 antibody of the present invention.
(§2) Specifically, after disassociating each cell line and washing in PBS, the number of cells was counted and set as 2 ×10^5 cells/200 µl PBS, and then the clone C2E3 among ROR1 monoclonal antibodies prepared in Example 3 was treated in 10 µg/mL, and it was reacted at 4° C. for 1 hour. After reaction, cells were washed in PBS, and then the FITC-labeled constant region (Fc)-specific antibody (Goat anti-human IgG FITC conjugate, Fc specific, Sigma, F9512, concentration: 2.0 mg/ml) was suspended in 2 µl/1 ×10^5 cells/200 µl PBS, and it was reacted at 4° C. for 1 hour. After reaction, cells were washed in PBS, it was analyzed using a FACSCalibur device. The negative control group was treated only with the FITC-labeled constant region (Fc)-specific antibody. To compare the expression degrees of ROR1 among the cancer cell lines, the value of the result for the peak shift in the experimental group treated with the ROR1 monoclonal antibody (C2E3) of the present invention was divided by the result for the peak shift in the control group (Mean Fluorescence Intensity Ratio MFI Ratio: MFI of anti-ROR1/MFI of 2nd Ab).

[2] = biological target: T1, human ROR1 expressed on the cell surface; assay: flow cytometry on HCC1143 cells (breast cancer), C2E3 IgG at 10 µg/mL, MFI of anti-ROR1 / MFI of 2nd Ab
Method: as §1, §2

[3] = biological target: T1, human ROR1 expressed on the cell surface; assay: flow cytometry on Kasumi-2 cells (ALL), C2E3 IgG at 10 µg/mL, MFI of anti-ROR1 / MFI of 2nd Ab
Method: as §1, §2

[4] = biological target: T1, human ROR1 expressed on the cell surface; assay: flow cytometry on H1437 cells (lung cancer), C2E3 IgG at 10 µg/mL, MFI of anti-ROR1 / MFI of 2nd Ab
Method: as §1, §2

[5] = biological target: T1, human ROR1 expressed on the cell surface; assay: flow cytometry on H460 cells (lung cancer), C2E3 IgG at 10 µg/mL, MFI of anti-ROR1 / MFI of 2nd Ab
Method: as §1, §2

[6] = biological target: T1, human ROR1 expressed on the cell surface; assay: flow cytometry on HCC1187 cells (breast cancer), C2E3 IgG at 10 µg/mL, MFI of anti-ROR1 / MFI of 2nd Ab
Method: as §1, §2

[7] = biological target: T1, human ROR1 expressed on the cell surface; assay: flow cytometry on MDA-MB-231 cells (breast cancer), C2E3 IgG at 10 µg/mL, MFI of anti-ROR1 / MFI of 2nd Ab
Method: as §1, §2

[8] = biological target: T1, human ROR1 expressed on the cell surface; assay: flow cytometry on HT29 cells (colon cancer), C2E3 IgG at 10 µg/mL, MFI of anti-ROR1 / MFI of 2nd Ab
Method: as §1, §2

[9] = biological target: T1, human ROR1 expressed on the cell surface; assay: flow cytometry on HCT116 cells (colon cancer), C2E3 IgG at 10 µg/mL, MFI of anti-ROR1 / MFI of 2nd Ab
Method: as §1, §2

[10] = biological target: T1, human ROR1 expressed on the cell surface; assay: flow cytometry on MDA-MB-468 cells (breast cancer), C2E3 IgG at 10 µg/mL, MFI of anti-ROR1 / MFI of 2nd Ab
Method: as §1, §2

[11] = biological target: T1, human ROR1 expressed on the cell surface; assay: flow cytometry on HCC1937 cells (breast cancer), C2E3 IgG at 10 µg/mL, MFI of anti-ROR1 / MFI of 2nd Ab
Method: as §1, §2

T1 sequence (Q01973 30-937): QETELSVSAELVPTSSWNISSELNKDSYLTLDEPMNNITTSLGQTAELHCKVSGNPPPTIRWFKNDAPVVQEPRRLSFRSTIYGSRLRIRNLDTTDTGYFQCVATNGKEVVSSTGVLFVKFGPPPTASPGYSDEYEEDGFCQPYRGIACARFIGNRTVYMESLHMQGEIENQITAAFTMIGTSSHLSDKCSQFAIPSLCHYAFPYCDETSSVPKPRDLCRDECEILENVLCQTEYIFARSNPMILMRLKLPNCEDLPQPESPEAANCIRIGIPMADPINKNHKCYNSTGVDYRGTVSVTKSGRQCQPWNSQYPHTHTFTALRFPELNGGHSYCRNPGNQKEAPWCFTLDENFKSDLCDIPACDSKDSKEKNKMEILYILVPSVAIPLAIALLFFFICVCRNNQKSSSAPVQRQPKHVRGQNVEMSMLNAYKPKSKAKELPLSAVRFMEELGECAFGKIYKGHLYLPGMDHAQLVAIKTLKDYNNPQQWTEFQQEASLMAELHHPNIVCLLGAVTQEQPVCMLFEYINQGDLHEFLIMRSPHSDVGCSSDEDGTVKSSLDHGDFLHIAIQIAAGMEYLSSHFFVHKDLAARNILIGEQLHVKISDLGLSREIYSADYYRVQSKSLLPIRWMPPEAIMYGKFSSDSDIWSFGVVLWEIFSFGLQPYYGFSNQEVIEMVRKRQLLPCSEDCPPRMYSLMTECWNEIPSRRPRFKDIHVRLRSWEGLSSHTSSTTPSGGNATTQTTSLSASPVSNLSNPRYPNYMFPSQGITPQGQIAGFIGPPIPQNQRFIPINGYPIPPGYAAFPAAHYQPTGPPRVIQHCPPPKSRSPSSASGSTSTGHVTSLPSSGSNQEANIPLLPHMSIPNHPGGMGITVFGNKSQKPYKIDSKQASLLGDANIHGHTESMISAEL

Mean Fold Ratio [1]: 4 | Mean Fold Ratio [2]: 3.2 | Mean Fold Ratio [3]: 11.5 | Mean Fold Ratio [4]: 4.1 | Mean Fold Ratio [5]: 10.9 | Mean Fold Ratio [6]: 9.3 | Mean Fold Ratio [7]: 8.8 | Mean Fold Ratio [8]: 3.9 | Mean Fold Ratio [9]: 18 | Mean Fold Ratio [10]: 6.4 | Mean Fold Ratio [11]: 2.7
B1: C2E3 anti-ROR1 IgG antibody (antibody, V domains shown)
VH: EVQLLESGGGLVQPGGSLRLSCAASGFTFSNYAMSWVRQAPGKGLEWVSSISHNSGSTYYADSVKGRFTISRDNSKNTLYLQMNSLRAEDTAVYYCAKFISARKSLGRSYSNGMDVWGQGTLVTVSS
VL: QSVLTQPPSASGTPGQRVTISCTGSSSNIGSNDVTWYQQLPGTAPKLLIYADSKRPSGVPDRFSGSKSGTSASLAISGLRSEDEADYYCGTWDYSLSGYVFGGGTKLTVLG
